# Experimental data published in paper doi:10.1101/2023.09.21.558797, “Dynamin 1xA interacts with Endophilin A1 via its spliced long C-terminus for ultrafast endocytosis” (bioRxiv, 2023).
# No end group written: not given here.
# T1: GST-Dyn1xA-PRR (full-length proline-rich region of Dynamin 1 splice variant xA, 746-864) (rat, UniProt P21575 746-864)
# T1 construct: cloned in pGEX-6P-1; used on beads in pull-downs and in solution in the ELISA; also called PRD
# T1 sequence (looked up): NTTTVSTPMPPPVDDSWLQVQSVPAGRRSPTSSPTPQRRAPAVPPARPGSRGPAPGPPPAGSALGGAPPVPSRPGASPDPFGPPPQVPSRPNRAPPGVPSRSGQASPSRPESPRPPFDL
# T2: Dyn1xA-PRR 746-864 (GST tag removed) (rat, UniProt P21575 746-864, 15N-labelled (or 15N, 13C labelled) for NMR)
# T2 construct: the SEC-MALS mass (19.2 kDa for the 1:1 complex) fits the cleaved forms; also called PRD; source: E. coli JM109, GST tag proteolytically cleaved, purified by gel filtration
# T2 sequence (looked up): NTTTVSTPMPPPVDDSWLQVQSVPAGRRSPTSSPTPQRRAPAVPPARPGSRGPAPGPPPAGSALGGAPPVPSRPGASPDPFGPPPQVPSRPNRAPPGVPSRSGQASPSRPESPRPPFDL
# B1: His-tagged mouse Endophilin A1 SH3 domain (domain or fragment)
# chain: not shown
# notes: Endophilin A1, mouse, SH3 domain; the methods describe only a GST-Endophilin A1-SH3 construct (mouse, 292-352); no His-tagged construct is described there; also called His-tagged mouse Endophilin-SH3 domain
# B2: Endophilin A1 SH3 domain (GST tag removed) (domain or fragment)
# chain: not shown
# notes: Endophilin A1, mouse, SH3 domain, amino acids 292-352 by the methods (the results say residues D291-H352); plasmid from Peter McPherson (McGill University); unlabelled in the titrations; also called endophilin SH3; Endophilin A SH3; source: E. coli JM109, GST tag proteolytically cleaved, purified by gel filtration
# Assays:
# Conditions in all cases: both partners purified
# [1] = molecular target: T1, GST-Dyn1xA-PRR (full-length …); experiment: ELISA; His-tagged mouse Endophilin A1 SH3 domain coated on a 96-well plate, overlaid with increasing concentrations of GST-tagged Dyn1-PRR peptides; two experiments of four replicates
# [2] = molecular target: B1; experiment: as above
# [3] = molecular target: B2; experiment: NMR titration; 1H-15N HSQC chemical shift perturbation; unlabelled Endophilin A1 SH3 titrated into 15N-labelled Dyn1 peptide; 298 K, 600 MHz
# [4] = molecular target: T2, Dyn1xA-PRR 746-864 (GST tag removed); experiment: SEC-MALS; Superdex 75 10/300 GL, 20 mM HEPES, 100 mM NaCl, 1 mM DTT, 1 mM PMSF, pH 7.2; complex at 0.5 mg and diluted to one third (0.167 mg)
# Sequence of His-tagged mouse Endophilin A1 SH3 domain (Q62420 290-349): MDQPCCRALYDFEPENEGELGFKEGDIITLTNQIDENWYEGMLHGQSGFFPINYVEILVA
binder,measurement,setting,value
B1,Kd,[1],44 nM
"GST-Dyn1xA 746-798 (domain or fragment, rat, UniProt P21575 746-798, looked up, Dynamin 1, rat, N746 to P798 of the PRR, common to splice variants xA and xB; also called phosphobox-1 peptide) NTTTVSTPMPPPVDDSWLQVQSVPAGRRSPTSSPTPQRRAPAVPPARPGSRGP",fold weaker affinity than xA_(746–864),[2],9 fold
"GST-Dyn1xA 806-864 (domain or fragment, rat, UniProt P21575 806-864, looked up, Dynamin 1 splice variant xA, rat, G806 to L864) GSALGGAPPVPSRPGASPDPFGPPPQVPSRPNRAPPGVPSRSGQASPSRPESPRPPFDL",fold difference in affinity from xA_(746–864),[2],< 2 fold
same,fold higher affinity than xA_(746–798),[2],5 fold
"Dyn1xA 746-798 (GST tag removed) (domain or fragment, rat, UniProt P21575 746-798, looked up, also: 15N-labelled (13C/15N for assignment), Dynamin 1, rat, N746 to P798 of the PRR; source: E. coli JM109, GST tag proteolytically cleaved, purified by gel filtration) NTTTVSTPMPPPVDDSWLQVQSVPAGRRSPTSSPTPQRRAPAVPPARPGSRGP",binding result,[3],binds
"Dyn1xA 806-864 (GST tag removed) (domain or fragment, rat, UniProt P21575 806-864, looked up, also: 15N-labelled (13C/15N for assignment), Dynamin 1 splice variant xA, rat, G806 to L864; source: E. coli JM109, GST tag proteolytically cleaved, purified by gel filtration) GSALGGAPPVPSRPGASPDPFGPPPQVPSRPNRAPPGVPSRSGQASPSRPESPRPPFDL",binding result,[3],binds
B2,stoichiometry N,[4],1
